Assay results as given in publication PMC11662662.

Target: H3K23ub mononucleosomes (H3 'K23ub' thioether mimic), P68431;P0CG48;P04908;O60814;P62805
Experiment: Alpha-screen proximity assay

- Kd: 140 nM
Substance: recombinant DNMT1 RFTS domain WT (His-MBP-RFTS) (from UniProt P26358) P378A; L381A
